In patent US20140377324A1, “Pharmaceutical Composition Comprising miRNA-100 And Its Use In The Modulation of Blood Vessel Growth and Endothelial Inflammation” (Universitatsklinikum Freiburg, priority 2009, published 2014):

Legend:
miR-100 = miR-100 level by quantitative stem-loop RT-PCR after pre-miR/anti-miR transfection; format: cell-based, human; conditions: 24 h following transfection; vs irrelevant-sequence controls; FIG. 2
Source text: To verify the expression of miR-100 in pure cell populations of the vascular wall, stem-loop RT-PCR was used for total RNA-isolates from cultured human endothelial cells (HUVECs) and human aortic vascular smooth muscle cells.
MicoRNA expression was validated by quantitative stem-loop PCR technology (TaqMan MicroRNA Assays, Applied Biosystems, Foster City, Calif.). The use of target-specific reverse transcription primers and TaqMan hybridization probes allows the specific detection of mature microRNAs. MicroRNA expression was normalized to the expression of the small RNAs rnu19 and rnu48.
miR-100 was strongly expressed in both cell types. To investigate a potential role of miR-100 for angiogenesis, miR-100 was overexpressed and silenced in these cell types by transfecting specific miR-100 precursors (pre-miRs) or antisense-molecules (anti-miRs), respectively. […] Pre- and anti-miRs with an irrelevant nucleotide sequence served as negative controls. There was no significant difference in cellular viability following transfection with the different compounds.
For transfection with pre-miR microRNA precursor molecules or anti-miRmiRNA inhibitors (all Ambion), cells were cultured to 70% confluence and transfected with 8nM pre-miR-100 or anti-miR-100 oligonucleotides using Lipofectamin RNAiMax (invitrogen) according to the manufacturers instructions. […]

endothelial cells [1] = assay: planar matrigel assay, endothelial network formation; format: cell-based, human
endothelial cells [2] = assay: three-dimensional spheroid culture assay, endothelial sprouting; format: cell-based, human
endothelial cells [3] = assay: flow cytometric quantification of Annexin V-staining (apoptosis); format: cell-based, human; conditions: compared to irrelevant control sequence, FIG. 3
Source text: (§1) To assess whether the observed differences were secondary to effects on cellular viability, endothelial cell apoptosis and proliferation following miR-100 modulation was checked. […] DNA-synthesis rate was further analyzed by measuring BrdU-Incorporation, which correlates well with cellular proliferation.

endothelial cells [4] = assay: BrdU-Incorporation (proliferation), endothelial cells; format: cell-based, human; conditions: FIG. 3
Source text: as §1

[5] = tested on: vascular smooth muscle cells; assay: BrdU-Incorporation (proliferation), smooth muscle cells; format: cell-based, human; conditions: FIG. 4
mTOR = mTOR expression in endothelial cells after miR-100 modulation; format: cell-based, human; conditions: FIG. 5
Description: The binding site of miR-100 in the 3′-UTR of mTOR is shown in (FIG. 6.) In FIG. 6 the sequence designated hsa-miR-100 corresponds to SEQ ID NO:1 and the sequence having the designation mTOR 3′UTR corresponds to SEQ ID NO:7.
(§2) For transfection with pre-miR microRNA precursor molecules or anti-miRmiRNA inhibitors (all Ambion), cells were cultured to 70% confluence and transfected with 8nM pre-miR-100 or anti-miR-100 oligonucleotides using Lipofectamin RNAiMax (invitrogen) according to the manufacturers instructions. For transfection of HEK293 cells with mTOR plasmids, 2 μg DNA per 3×10E5 cells was transfected with Fugene 6 transfection reagent (Roche). For double transfection of plasmids with miRNA-precursors and inhibitors, pre- and anti-miRs were added to the plasmid/Fugene transfection mix in the same final concentrations as stated above. mTOR (Acc. NM004958) full length (SKU SC124066) and ORF-constructs (SKU RC220457) were obtained from the Origene collection (Origene, Rockville, Md.).

mTOR (FRAP1-gene) = assay: microarray based gene expression analysis of endothelial cells following miR-100 overexpression (mTOR); format: cell-based, human
Source text: Using a combination of bioinformatic prediction algorithms and microarray based gene expression analysis of endothelial cells following miR-100 overexpression, it was searched for potential target genes of miR-100 that could be responsible for the observed effects.

HEK293 cells = assay: HEK cell proliferation, rescue-experiment with mTOR plasmids; format: cell-based, human; conditions: 8nM oligonucleotide; FIG. 7
Description: To investigate if the repression of mTOR was responsible for the observed attenuation of cellular proliferation by miR-100, a rescue-experiment was performed by transfecting mTOR-coding plasmids in combination with pre-miR-100.
as §2
Due to the large plasmid size of mTOR, it was not possible to achieve a sufficient transfection rate in endothelial cells without procedure-related toxic effects and therefore the easily transfected HEK-cells were chosen as a culture model, where the miR-100 effects on proliferation seen in endothelial cells could be reproduced (FIG. 7).

E-Selectin (SELE) = assay: Agilent microarray after miR-100 overexpression in endothelial cells, E-Selectin; format: cell-based, human; conditions: 48 hours after transfection vs control oligonucleotide, FIG. 12
Description: (§3) After discovering the high baseline expression of miR-100 in endothelial cells and its downregulation in response to vascular injury and ischemia, the function of this microRNA in endothelial cells (EC) was investigated. Therefore, miR-100 was overexpressed in EC by transfecting a synthetic miR-100 precursor molecule (pre-mir) and analysed global mRNA gene expression changes compared to transfection with a control oligonucleotide at 48 hours after transfection on a human Agilent 4×44 k microarray platform.
(§4) Microarray results were analysed both on individual gene level as well as by biological pathway analysis using the “Panther Pathways Analysis” Tool that tests changes in gene expression for enrichment of specific biological pathways or cellular functions.
(§5) Endothelial cells were transfected with miR-100 precursor oligonucleotides. Total RNA was isolated after 48 h for microarray analysis of global gene expression.

VCAM-1 [6] = assay: Agilent microarray after miR-100 overexpression in endothelial cells, VCAM-1; format: cell-based, human; conditions: 48 hours after transfection vs control oligonucleotide, FIG. 12
Description: as §3, §4, §5

VCAM-1 [7] = assay: VCAM-1 mRNA expression in endothelial cells (Taqman PCR); format: cell-based, human; conditions: vs scrambled premiR control; FIG. 13
Description: (§6) Human endothelial cells were transfected with premiR-100 and scrambled premiR control oligonucleotides. After RNA isolation, the relative expression rate of the mRNA of different adhesion molecules was measured using the Stem loop Taqman PCR (P value≦0.005).

ICAM-1 [8] = assay: ICAM-1 mRNA expression in endothelial cells (Taqman PCR); format: cell-based, human; conditions: vs scrambled premiR control; FIG. 13
Description: as §6

E-Selectin [9] = assay: E-Selectin mRNA expression in endothelial cells (Taqman PCR); format: cell-based, human; conditions: vs scrambled premiR control; FIG. 13
Description: as §6

VCAM-1 [10] = assay: VCAM-1 protein expression in endothelial cells (Western blot); format: cell-based, human
Description: (§7) MiRNA-100 was overexpressed in human endothelial cells followed by protein isolation. Using Western blots, the protein expression of VCAM-1, ICAM-1 and E-Selectin was determined. FIGS. 14A and B show the ratio between volume intensity of the protein-samples and the loading control (β-tubulin) for [A] the baseline expression and [B] the expression after 24 h TNF-α stimulation.

ICAM-1 [11] = assay: ICAM-1 protein expression in endothelial cells (Western blot); format: cell-based, human
Description: as §7

E-Selectin [12] = assay: E-Selectin protein expression in endothelial cells (Western blot); format: cell-based, human
Description: as §7

HUVECs / human PBMCs = assay: Leukocyte-HUVEC interaction under flow conditions (flow chamber); format: cell-based; conditions: TNF-alpha 30 ng/ml for 24 h, flow 1 dyn/cm^2; FIG. 15
Description: HUVECs were grown to confluence, transfected with either anti-miR-100 or pre-Mir-100 oligonucelotides or scrambled controls and stimulated with TNF-alpha 30 ng/ml for 24 h. Human PBMCs (HPBMCs) were obtained from buffy coats of healthy donors by Ficoll-Hypaque density gradient centrifugation. The flow chamber was assembled and placed onto an inverted microscope stage, and freshly isolated HPBMCs (1×10^6/ml) were perfused across the endothelial monolayers. In all experiments, leukocyte interactions were determined over 105 min at 1 dyn/cm^2. Cells interacting on the surface of the endothelium were visualized and recorded using phase-contrast microscopy.
To test if this change in expression results in a functional difference in leukocyte rolling and adhesion to the endothelial surface, the attachment of isolated peripheral blood mononuclear cells (PBMC) to transfected endothelial cells was investigated under physiologic flow conditions in a flow chamber apparatus.
A physiological venous blood flow (1 dynes/cm^2) was induced by a flow chamber apparatus and the number of rolling or adherent peripheral blood mononuclear cells (PBMCs) was counted.

[13] = tested on: cultured cancer cells (oral squamous cell carcinoma); conditions: Henson et al. 2009; cited from earlier work
[14] = after 24 h TNF-α stimulation, FIG. 14B

B1: pre-miR-100: synthetic miR-100 precursor molecule, SEQ ID No. 8, used to overexpress miR-100; processed to mature miRNA-100 (SEQ ID No: 9) (nucleic acid)
chain: CCUGUUGCCACAAACCCGUAGAUCCGAACUUGUGGUAUUAGUCCGCACAAGCUUGUAUCUAUAGGUAUGUGUCUGUUAGG
modifications: listed as RNA, chemistry not given here
detectable miR-100 (relative miR-100 expression) (miR-100): strong increase in detectable miR-100 | endothelial network formation (endothelial cells [1]): significant inhibitory effect | endothelial sprouting (total sprout length) (endothelial cells [2]): significant inhibitory effect | endothelial cell apoptosis (endothelial cells [3]): slight increase in endothelial cell apoptosis | endothelial cell proliferation (DNA-synthesis rate) (endothelial cells [4]): significant attenuation of endothelial cell proliferation | inhibitory effect on proliferation, smooth muscle cells compared with endothelial cells [5]: more pronounced in endothelial cells than in smooth muscle cells | mTOR-expression on both mRNA as well as protein level (mTOR): significantly repressed | mTOR (FRAP1) gene expression (mTOR (FRAP1-gene)): downregulated | cell proliferation of HEK cells (HEK293 cells): anti-proliferative effect | E-Selectin (SELE) gene expression (E-Selectin (SELE)): strong downregulation | VCAM-1 gene expression (VCAM-1 [6]): strong downregulation | VCAM-1 mRNA relative expression (VCAM-1 [7]): decrease | ICAM-1 mRNA relative expression (ICAM-1 [8]): decrease | E-Selectin mRNA relative expression (E-Selectin [9]): decrease | VCAM-1 protein, upregulation after TNF-α stimulation (VCAM-1 [10]; [14]): blunts the upregulation in response to inflammatory stimuli | VCAM-1 protein, baseline expression (VCAM-1 [10]; ratio to β-tubulin, FIG. 14A): decreases baseline expression | ICAM-1 protein, upregulation after TNF-α stimulation (ICAM-1 [11]; [14]): blunts the upregulation in response to inflammatory stimuli | ICAM-1 protein, baseline expression (ICAM-1 [11]; ratio to β-tubulin, FIG. 14A): decreases baseline expression | E-Selectin protein, upregulation after TNF-α stimulation (E-Selectin [12]; [14]): blunts the upregulation in response to inflammatory stimuli | E-Selectin protein, baseline expression (E-Selectin [12]; ratio to β-tubulin): decreases baseline expression | leukocyte (PBMC) adhesion to transfected endothelial cells (HUVECs / human PBMCs): significantly attenuates leukocyte adhesion | cell proliferation [13]: significantly reduced cell proliferation
